These results are taken from publication PMC6356446, “Involvement of N-glycan in Multiple Receptor Tyrosine Kinases Targeted by Ling-Zhi-8 for Suppressing HCC413 Tumor Progression” (Cancers, 2018).

Targets include EGFR (human (endogenous in HCC413), UniProt P00533 25-1210, N-glycans (sites not given)); c-Met (human (endogenous in HCC413), UniProt P08581 25-1390, N-glycans (sites not given)); HER3 (human (endogenous in HCC413), UniProt P21860 20-1342, N-glycans (sites not given)).
Assay in all cases: cell-based or functional assay

c-Met, sequence (P08581 25-1390): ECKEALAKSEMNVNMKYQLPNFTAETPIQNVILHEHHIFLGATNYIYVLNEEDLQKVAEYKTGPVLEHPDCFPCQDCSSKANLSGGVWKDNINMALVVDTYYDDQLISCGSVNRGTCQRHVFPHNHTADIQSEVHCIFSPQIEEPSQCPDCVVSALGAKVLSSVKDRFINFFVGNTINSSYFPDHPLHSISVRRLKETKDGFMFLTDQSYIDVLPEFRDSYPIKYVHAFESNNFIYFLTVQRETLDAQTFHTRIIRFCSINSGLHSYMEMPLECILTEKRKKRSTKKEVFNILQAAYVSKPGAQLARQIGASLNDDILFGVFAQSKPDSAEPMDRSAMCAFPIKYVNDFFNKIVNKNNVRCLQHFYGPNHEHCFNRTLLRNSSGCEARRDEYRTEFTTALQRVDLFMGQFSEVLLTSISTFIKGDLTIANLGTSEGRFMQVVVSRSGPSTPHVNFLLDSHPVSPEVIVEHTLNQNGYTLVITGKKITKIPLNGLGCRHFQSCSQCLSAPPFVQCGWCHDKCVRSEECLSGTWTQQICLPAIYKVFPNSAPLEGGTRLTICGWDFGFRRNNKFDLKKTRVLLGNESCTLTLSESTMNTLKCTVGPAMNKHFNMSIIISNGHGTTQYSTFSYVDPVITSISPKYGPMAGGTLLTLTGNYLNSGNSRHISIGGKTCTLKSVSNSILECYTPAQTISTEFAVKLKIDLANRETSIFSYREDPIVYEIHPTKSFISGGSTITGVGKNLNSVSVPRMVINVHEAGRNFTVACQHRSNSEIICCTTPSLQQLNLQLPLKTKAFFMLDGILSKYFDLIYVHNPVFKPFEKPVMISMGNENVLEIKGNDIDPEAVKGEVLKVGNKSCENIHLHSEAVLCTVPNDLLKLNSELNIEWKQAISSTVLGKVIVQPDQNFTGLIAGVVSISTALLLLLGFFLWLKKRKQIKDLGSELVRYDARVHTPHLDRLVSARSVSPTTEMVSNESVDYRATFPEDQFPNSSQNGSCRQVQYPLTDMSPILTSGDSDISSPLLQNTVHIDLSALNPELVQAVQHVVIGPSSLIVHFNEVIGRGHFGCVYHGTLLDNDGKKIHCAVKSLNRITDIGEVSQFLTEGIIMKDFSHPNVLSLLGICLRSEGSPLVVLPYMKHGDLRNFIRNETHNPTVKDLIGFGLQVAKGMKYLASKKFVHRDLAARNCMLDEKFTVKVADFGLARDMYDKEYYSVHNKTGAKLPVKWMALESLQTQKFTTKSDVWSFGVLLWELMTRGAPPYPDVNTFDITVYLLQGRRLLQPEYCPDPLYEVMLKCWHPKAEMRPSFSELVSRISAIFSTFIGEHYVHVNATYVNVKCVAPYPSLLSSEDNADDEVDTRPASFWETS
HER3, sequence (P21860 20-1342): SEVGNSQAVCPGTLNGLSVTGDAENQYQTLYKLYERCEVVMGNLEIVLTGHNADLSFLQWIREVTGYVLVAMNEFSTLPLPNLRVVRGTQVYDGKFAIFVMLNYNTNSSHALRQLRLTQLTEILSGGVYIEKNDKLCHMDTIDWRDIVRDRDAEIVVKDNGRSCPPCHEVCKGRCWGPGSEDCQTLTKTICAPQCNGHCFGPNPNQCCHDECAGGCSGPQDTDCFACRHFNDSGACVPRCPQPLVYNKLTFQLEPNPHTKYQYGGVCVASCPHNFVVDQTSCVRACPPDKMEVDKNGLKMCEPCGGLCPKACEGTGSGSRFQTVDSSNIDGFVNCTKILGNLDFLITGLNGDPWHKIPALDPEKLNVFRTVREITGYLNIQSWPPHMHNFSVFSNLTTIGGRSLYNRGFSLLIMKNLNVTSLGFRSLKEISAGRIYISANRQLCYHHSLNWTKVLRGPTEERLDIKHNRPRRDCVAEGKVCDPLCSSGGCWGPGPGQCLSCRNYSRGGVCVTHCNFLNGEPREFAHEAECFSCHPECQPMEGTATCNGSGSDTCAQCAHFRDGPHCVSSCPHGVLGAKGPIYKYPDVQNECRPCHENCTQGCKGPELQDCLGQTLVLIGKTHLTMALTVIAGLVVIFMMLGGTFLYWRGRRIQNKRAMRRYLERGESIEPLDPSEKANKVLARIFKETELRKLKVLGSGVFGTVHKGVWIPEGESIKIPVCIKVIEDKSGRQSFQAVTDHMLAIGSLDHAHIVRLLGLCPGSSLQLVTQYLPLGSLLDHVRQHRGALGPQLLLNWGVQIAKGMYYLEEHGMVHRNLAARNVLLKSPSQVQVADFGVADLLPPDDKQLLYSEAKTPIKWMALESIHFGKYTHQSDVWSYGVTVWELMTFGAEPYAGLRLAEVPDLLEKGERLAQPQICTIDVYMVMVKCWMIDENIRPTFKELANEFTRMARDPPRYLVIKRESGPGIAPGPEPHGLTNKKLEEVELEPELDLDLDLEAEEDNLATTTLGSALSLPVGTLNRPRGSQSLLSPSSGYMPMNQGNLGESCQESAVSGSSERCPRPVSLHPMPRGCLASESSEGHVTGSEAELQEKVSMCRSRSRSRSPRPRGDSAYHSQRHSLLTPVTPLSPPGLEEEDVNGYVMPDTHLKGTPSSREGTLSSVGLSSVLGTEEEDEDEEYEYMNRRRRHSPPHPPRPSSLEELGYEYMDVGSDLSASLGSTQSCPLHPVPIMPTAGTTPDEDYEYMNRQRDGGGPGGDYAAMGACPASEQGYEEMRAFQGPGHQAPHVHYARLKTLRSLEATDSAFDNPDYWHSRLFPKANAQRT

B1: Ling-Zhi-8 (natural protein, Ganoderma lucidium, UniProt P14945 1-111, looked up)
chain: MSDTALIFRLAWDVKKLSFDYTPNWGRGNPNNFIDTVTFPKVLTDKAYTYRVAVSGRNLGVKPSYAVESDGSQKVNFLEYNSGYGIADTNTIQVFVVDPDTNNDFIIAQWN
As for B1, in the assay with EGFR, the “decrease in phosphorylated ERK in HCC413, LZ-8 0.2 and 0.8 uM, 24 h; Western blot” value (shortened to “decrease in phosphorylated ERK in HCC413”) was in the range of 85 to 90%; the “phosphorylated JNK in HCC413, LZ-8 0.2 and 0.8 uM, 24 h; Western blot” value (“phosphorylated JNK in HCC413” below) was found to be 50%; the “phosphorylated c-jun in HCC413, LZ-8 0.2 and 0.8 uM, 24 h; Western blot” value (from here on “phosphorylated c-jun in HCC413”) came to 75%. In addition, in the assay with c-Met, the “decrease in phosphorylated ERK in HCC413” value was 85 to 90%; the “phosphorylated JNK in HCC413” value amounted to 50%; the “phosphorylated c-jun in HCC413” value was 75%. In addition, in the assay with HER3, the “decrease in phosphorylated ERK in HCC413” value was in the range of 85 to 90%; the “phosphorylated JNK in HCC413” value is 50%; the “phosphorylated c-jun in HCC413” value turned out to be 75%.
